Measurements from article PMC4240464.

Key:
[1] = biological target: Evasin-4–Fc (Rhipicephalus sanguineus); experiment: SPR
[2] = biological target: Fc–Evasin-4 (Rhipicephalus sanguineus); experiment: SPR
CCL11 (human) = CCL11 (human) (UniProt P51671)
CCL22 (human) = CCL22 (human) (UniProt O00626)
CCL24 (human) = CCL24 (human) (UniProt O00175)
CCL5 (wild type) (human) = CCL5 (wild type) (human) (UniProt P13501)
CCL5 (wild type) (human), sequence (P13501 24-91): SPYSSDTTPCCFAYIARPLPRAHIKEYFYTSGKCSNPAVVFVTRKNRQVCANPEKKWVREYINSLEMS

CCL11 (human), sequence (P51671 24-97): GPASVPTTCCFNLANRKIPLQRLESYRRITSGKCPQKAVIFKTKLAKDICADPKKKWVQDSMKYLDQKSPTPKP
CCL11, sequence (P51671 24-97): as above
CCL24 (human), sequence (O00175 27-119): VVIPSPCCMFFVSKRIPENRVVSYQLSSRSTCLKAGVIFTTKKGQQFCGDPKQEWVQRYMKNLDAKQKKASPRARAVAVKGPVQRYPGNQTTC
CCL8, sequence (P80075 24-99): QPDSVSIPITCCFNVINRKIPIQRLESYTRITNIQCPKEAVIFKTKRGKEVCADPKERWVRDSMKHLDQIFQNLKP
CCL26, sequence (Q9Y258 24-94): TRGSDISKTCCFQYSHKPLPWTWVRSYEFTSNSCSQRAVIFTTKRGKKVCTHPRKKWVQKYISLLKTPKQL
CCL3, sequence (P10147 24-92): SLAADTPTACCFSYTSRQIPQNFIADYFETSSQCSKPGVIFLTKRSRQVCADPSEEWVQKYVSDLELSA
CCL7, sequence (P80098 24-99): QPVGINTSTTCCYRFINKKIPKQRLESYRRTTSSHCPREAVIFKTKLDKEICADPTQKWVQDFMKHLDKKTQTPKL
CCL22 (human), sequence (O00626 25-93): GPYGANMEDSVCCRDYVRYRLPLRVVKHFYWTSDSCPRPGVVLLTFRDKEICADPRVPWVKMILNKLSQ

CCL26 (from UniProt Q9Y258 24-94) (ligand)
Kd [1]: 15.6 nM | Kd [2]: 17.3 nM

CCL3 (from UniProt P10147 24-92) (ligand)
Kd [1]: 6.79 nM | Kd [2]: 0.277 nM

Evasin-4–Fc (Fc fusion)
IC50, inhibition of chemotaxis of L1.2 CCR3 cells to CCL11 (EC80 1 nM) (CCL11 (human)): 1540 nM | IC50, inhibition of chemotaxis of L1.2 CCR4 cells to CCL22 (EC80 1 nM) (CCL22 (human)): 38 nM | IC50, inhibition of chemotaxis of L1.2 CCR3 cells to CCL24 (EC80 10 nM) (CCL24 (human)): 642 nM | IC50, inhibition of chemotaxis of L1.2 CCR5 cells to CCL5 (EC80 1 nM) (CCL5 (wild type) (human)): 9.6 nM

CCL7 (from UniProt P80098 24-99) (ligand)
Kd [1]: 0.053 nM | Kd [2]: 0.134 nM

CCL5 E26A (from UniProt P13501 24-91) (ligand)
Kd [1]: 1.72 nM | Kd [2]: 0.02 nM

Fc–Evasin-4 (Fc fusion)
IC50, inhibition of chemotaxis of L1.2 CCR3 cells to CCL11 (EC80 1 nM) (CCL11 (human)): 88 nM | IC50, inhibition of chemotaxis of L1.2 CCR3 cells to CCL24 (EC80 10 nM) (CCL24 (human)): 113 nM

CCL8 (from UniProt P80075 24-99) (ligand)
Kd [1]: 0.015 nM | Kd [2]: 0.088 nM

CCL11 (from UniProt P51671 24-97) (ligand)
Kd [1]: 3.6 nM | Kd [2]: 0.099 nM
